# From patent publication US20170246263A1 (SHIRE HUMAN GENETIC THERAPIES, published 2017)
# T1: SORT1 on SORT1 overexpressing cells (Homo sapiens (Human), UniProt Q99523 78-831)
# T1 sequence: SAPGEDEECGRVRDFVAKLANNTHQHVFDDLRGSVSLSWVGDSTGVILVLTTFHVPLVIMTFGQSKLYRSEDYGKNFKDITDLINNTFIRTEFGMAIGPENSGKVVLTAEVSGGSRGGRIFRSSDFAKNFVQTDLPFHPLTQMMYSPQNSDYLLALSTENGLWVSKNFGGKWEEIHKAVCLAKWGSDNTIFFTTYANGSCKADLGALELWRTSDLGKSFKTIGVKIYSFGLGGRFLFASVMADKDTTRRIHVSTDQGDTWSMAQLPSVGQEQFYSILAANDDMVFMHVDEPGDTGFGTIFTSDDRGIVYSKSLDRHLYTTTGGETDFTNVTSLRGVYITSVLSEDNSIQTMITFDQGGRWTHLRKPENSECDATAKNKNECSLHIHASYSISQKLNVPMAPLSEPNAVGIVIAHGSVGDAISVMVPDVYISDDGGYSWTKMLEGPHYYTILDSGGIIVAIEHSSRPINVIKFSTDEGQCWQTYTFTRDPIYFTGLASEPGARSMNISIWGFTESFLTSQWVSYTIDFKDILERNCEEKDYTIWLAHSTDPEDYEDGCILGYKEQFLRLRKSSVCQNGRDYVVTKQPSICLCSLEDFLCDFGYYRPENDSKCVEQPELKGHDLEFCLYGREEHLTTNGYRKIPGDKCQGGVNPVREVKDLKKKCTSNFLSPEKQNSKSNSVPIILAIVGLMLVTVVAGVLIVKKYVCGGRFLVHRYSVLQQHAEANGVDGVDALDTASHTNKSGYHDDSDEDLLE
# T2: recombinant 6xHistidine tagged human SORT1 (human, UniProt Q99523 78-755)
# T2 construct: Captured on the chip by an anti-His mAb; also called SORT1-6xHis; Sortilin-6xHis
# T2 sequence: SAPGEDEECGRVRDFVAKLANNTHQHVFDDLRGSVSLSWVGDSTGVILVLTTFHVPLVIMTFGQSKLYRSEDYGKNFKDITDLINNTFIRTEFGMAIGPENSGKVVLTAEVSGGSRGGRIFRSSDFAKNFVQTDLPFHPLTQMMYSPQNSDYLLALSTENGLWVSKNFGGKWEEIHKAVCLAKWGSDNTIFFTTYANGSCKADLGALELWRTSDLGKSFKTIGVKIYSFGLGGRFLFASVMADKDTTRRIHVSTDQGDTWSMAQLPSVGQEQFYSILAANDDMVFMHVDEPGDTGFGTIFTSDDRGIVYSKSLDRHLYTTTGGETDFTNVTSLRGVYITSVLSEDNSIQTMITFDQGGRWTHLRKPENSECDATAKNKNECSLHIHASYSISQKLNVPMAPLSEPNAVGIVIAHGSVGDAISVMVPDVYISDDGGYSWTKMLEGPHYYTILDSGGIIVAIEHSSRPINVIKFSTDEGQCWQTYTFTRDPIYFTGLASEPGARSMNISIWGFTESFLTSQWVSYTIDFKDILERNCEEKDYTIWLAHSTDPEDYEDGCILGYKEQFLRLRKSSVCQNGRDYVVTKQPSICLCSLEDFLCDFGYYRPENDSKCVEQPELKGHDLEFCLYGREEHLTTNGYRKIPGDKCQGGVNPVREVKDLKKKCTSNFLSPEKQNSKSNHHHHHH
# B1: Naglu-SPP fusion protein (enzyme)
# chain: DEAREAAAVRALVARLLGPGPAADFSVSVERALAAKPGLDTYSLGGGGAARVRVRGSTGVAAAAGLHRYLRDFCGCHVAWSGSQLRLPRPLPAVPGELTEATPNRYRYYQNVCTQSYSFVWWDWARWEREIDWMALNGINLALAWSGQEAIWQRVYLALGLTQAEINEFFTGPAFLAWGRMGNLHTWDGPLPPSWHIKQLYLQHRVLDQMRSFGMTPVLPAFAGHVPEAVTRVFPQVNVTKMGSWGHFNCSYSCSFLLAPEDPIFPIIGSLFLRELIKEFGTDHIYGADTFNEMQPPSSEPSYLAAATTAVYEAMTAVDTEAVWLLQGWLFQHQPQFWGPAQIRAVLGAVPRGRLLVLDLFAESQPVYTRTASFQGQPFIWCMLHNFGGNHGLFGALEAVNGGPEAARLFPNSTMVGTGMAPEGISQNEVVYSLMAELGWRKDPVPDLAAWVTSFAARRYGVSHPDAGAAWRLLLRSVYNCSGEACRGHNRSPLVRRPSLQMNTSIWYNRSDVFEAWRLLLTSAPSLATSPAFRYDLLDLTRQAVQELVSLYYEEARSAYLSKELASLLRAGGVLAYELLPALDEVLASDSRFLLGSWLEQARAAAVSEAEADFYEQNSRYQLTLWGPEGNILDYANKQLAGLVANYYTPRWRLFLEALVDSVAQGIPFQQHQFDKNVFQLEQAFVLSKQRYPSQPRGDTVDLAKKIFLKYYPRWVAGSWGAPGGGGGAAAAAGGGGGGAPGGGGGAAAAAGGGGGGAPGGGGGAAAAAGGGGGGAPQDRLDAPPPPAAPLPRWSGPIGVSWGLRAAAAGGAFPRGGRWRR
# B2: Naglu-tPRGN fusion protein (enzyme)
# chain: DEAREAAAVRALVARLLGPGPAADFSVSVERALAAKPGLDTYSLGGGGAARVRVRGSTGVAAAAGLHRYLRDFCGCHVAWSGSQLRLPRPLPAVPGELTEATPNRYRYYQNVCTQSYSFVWWDWARWEREIDWMALNGINLALAWSGQEAIWQRVYLALGLTQAEINEFFTGPAFLAWGRMGNLHTWDGPLPPSWHIKQLYLQHRVLDQMRSFGMTPVLPAFAGHVPEAVTRVFPQVNVTKMGSWGHFNCSYSCSFLLAPEDPIFPIIGSLFLRELIKEFGTDHIYGADTFNEMQPPSSEPSYLAAATTAVYEAMTAVDTEAVWLLQGWLFQHQPQFWGPAQIRAVLGAVPRGRLLVLDLFAESQPVYTRTASFQGQPFIWCMLHNFGGNHGLFGALEAVNGGPEAARLFPNSTMVGTGMAPEGISQNEVVYSLMAELGWRKDPVPDLAAWVTSFAARRYGVSHPDAGAAWRLLLRSVYNCSGEACRGHNRSPLVRRPSLQMNTSIWYNRSDVFEAWRLLLTSAPSLATSPAFRYDLLDLTRQAVQELVSLYYEEARSAYLSKELASLLRAGGVLAYELLPALDEVLASDSRFLLGSWLEQARAAAVSEAEADFYEQNSRYQLTLWGPEGNILDYANKQLAGLVANYYTPRWRLFLEALVDSVAQGIPFQQHQFDKNVFQLEQAFVLSKQRYPSQPRGDTVDLAKKIFLKYYPRWVAGSWGAPGGGGGAAAAAGGGGGGAPGGGGGAAAAAGGGGGGAPGGGGGAAAAAGGGGGGAPTKCLRREAPRWDAPLRDPALRQLL
# notes: also called Naglu-tPGRN
# Legend:
# [1] = biological target: T1, SORT1 on SORT1 overexpressing cells; test: cell-based or functional assay
# [2] = biological target: T2, recombinant 6xHistidine tagged human …; test: SPR; SORT1-6xHis captured by anti-His mAb, Naglu-SPP as analyte 0-20 nM
# Description: (§1) Briefly, anti-His mAb (capturing molecule) was diluted in immobilization buffer and bound on the dextran surface of a SPR sensor chip housed in a microfluidic system. […] As the solution moved over the SPR sensor chip, the analyte bound to the capture complex and an increase in SPR signal (expressed in response units, RU) was observed. Finally, a solution without analyte was injected into the microfluidic device to detach bound […] from the capture complex, resulting in a decrease in SPR signal. The detailed experimental conditions are described in Table 6 below.
# [3] = biological target: T2, recombinant 6xHistidine tagged human …; test: SPR; SORT1-6xHis captured on anti-His mAb, Naglu-SPP 0.625-20 nM as analyte; value from the fit table under the sensorgrams
# Description: as §1
# [4] = biological target: T1, SORT1 on SORT1 overexpressing cells; test: binding/uptake assay on SORT1 overexpressing cells; intracellular Naglu activity against fusion protein concentration; cellular uptake assay on SORT1 overexpressing cells, read as intracellular Naglu activity
# Description: A cell line was established overexpressing SORT1, using standard technologies known in the art. […] After a specified period of time, the supernatant was removed and the cells were washed repeatedly. Then, cells were lysed and each sample was assayed for Naglu enzyme activity.
Binder,Kd (cellular uptake: Naglu activity in lysates of SORT1 overexpressing cells) [A] [1],Kd [2],koff [2],kon [2],Kd [3],koff [3],kon [3],Kd [4]
B1,155 nM,~0.66 nM,~0.00071 s⁻¹,~1.1e+06 M⁻¹ s⁻¹,0.663 nM,0.000708 s⁻¹,1.07e+06 M⁻¹ s⁻¹,155 nM
B2,,,,,,,,392 nM
